Measured values from the nanobody polyreactivity screen of Harvey et al. (2022).

assay: yeast display, Sf9 membrane polyspecificity reagent, FACS + sequencing; frameworks hold sequencing errors
Outline: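 Nanobodies from a synthetic yeast display library (Saccharomyces cerevisiae BJ5465), induced 36–48 hours with galactose, were stained 1 hour at 4 °C with 10% biotinylated, detergent-solubilized Sf9 membrane reagent, enriched on streptavidin microbeads, then FACS-sorted. Anti-HA (expression) and streptavidin (reagent binding) fluorescence set low and high (top ~1%) gates. Polyreactivity labels come from the gate of origin. Genes were colony-PCR amplified, MiSeq 2 × 250 sequenced and filtered by CDR length.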

Sequence	polyreactivity (PSR sort gate)
QDQHVESGGGLVQAGGRLSLICAASAFISVRNAMGWYRQAPGKERELVAAISSGDTTDYADSLKGRFTISRDNAKNTVYLLMNSLKPEDTAVYYCAAVYSGRYYYWGQGTQVTVSS	low polyreactivity
QVQLVESGGGLVQAGGSLRLSCAASGIIFYPYAMGWYRQAPGKERELVAAISTSGGRTYYADSVKGRFTISRDNAKNTVYLQMNSLKPEDTAVYYCAADNSSGDVNGGGYWGQGTQVTVSS	low polyreactivity
QVQLVESGGGLVQAGGSLRLSCAASGFTFIFNAMGWNRQAPGKERELVATISSGGSTYYADSVKGRFTISRDNAKNTVYLQMNSLKPEDTAVYYCNTDDVGGYDYWGQGTQVTLSS	low polyreactivity
QVQLVESGGGLVQAGGSLSLSCAASGRIFRRYAMGWYRQAPGKEREFVAAISYGGGSTYYADSVKGRFTISRDNAKNTVYLQMNSLKPEDTAVYYCNADVPKSLLLYYPWGYGYWGQGTQVTVSS	low polyreactivity
QLQLVESGGGLVQAGGSLRLSSAASGRTFRWNAMGWYRQAPGKERELVAAISSGGSTYYADSVKGRFTISRDNAKNTVYLQMNSLKPEDTAVYYCAKTSFKYRWSYPVISMDYWGQGTQVTVSS	high polyreactivity
QVQLVESGGGLVQAGGSLRFTCAASGRTFIGYAMGWYRHAPGKERELVATISVSGGSTYYADSVKGRYTISRDNAKKTVYLHMNSLKPEDTAVYYCAKAYLRYYDGPYDYWGQGTQVTLSS	low polyreactivity
QVQLVESGGGLVQAGGSLRLSCAATGFIFRYYAMGWYSQAPGKERELVATISSGGGTHYADSVKGRYSISRDNAKNTVYLKMNSLKPEDTAVYYCNARGYRRLRTRVDYWGQGTQVTVSS	high polyreactivity
QVQLVESGGGLVQAGGSLRLSCAASGTTFSPNAMGWYRQAPGKERELVAAITGGGSTYADSVKGRFTISRDNAKNTVYLQMNSLKPEDTAVYYCNADSYSFPYYYWGQGTQVTVSS	low polyreactivity
QVQLVESGGGIVQAGGSLRLLCAASGRIFTGNVMGWYRQAPGKERVLVAAISYGGGSTNYADSVKGRFTISRDNAKNTVSLQMNSLIPEDTAVYYCAVLYGYRSSSRYGYDSWGQGSQVTVSS	high polyreactivity
QVQLVESGGGVVQAGCSLRLSCAASGFTFRTNAMGWYRQAPGIEREFVAAISWSGGSTYYADSVKGRFTISRDNAKNTVYLQMNSLKPEDTAVYYCNADPFHWYYTNMYYWGQGTQVTVSS	high polyreactivity
QVQLVESGGGLVQAGGSLRLSCAASGRTFVSYAMGWYRQAPGKERELVAGITWRGGSTYYADSVKGRFTISRDNAKNTVYLQMNSLTPEDTAVYYCAKRSVLYGNRIFDYWGQGTQVTVSS	high polyreactivity
QVQLVESGGGLVQAGGSLRLSCAASGGTFPSNAMGWYRQAPGQERELVAAITGSSDTTYYADSVKGRFTISRDNAKNTVYLQMNSLKPEDTAVYYCAADTPRDTNRYEYWGQGTQVTVSS	low polyreactivity
QVQLVESGGGLVQAGGSLRLSCAASGSIFAYYAMGWYREAPGKERELVADITSSGGITYSADSVKGRFTISRDNAKNTVYLLMNSLKPEDTAGYYCNADSWAIGGGSYPYDYWGQGTKVTVSS	low polyreactivity
QVQLVESGGGLVQAGGSLRLSCAASGSTLEFNAMGWYRQAPGKERELVAVINRSDGSTYYADSVKGRFTISRDNAKNTVYLQMNSLKPEDTADYYCAADRHQVSVISTEDYWGQGTQVTVSS	low polyreactivity
QVQLVESGGGLVQAGGSLRLSCAASGRIFLYYAMGWYRQAPGKERELVAAITSSGGGTYYADSVKGRFTISRDNAKNTVYLQMNSLKPLDTAVYYCAARRRSQWRYYYWGQGTQVTVSS	high polyreactivity
QVQLVESAGGLVQAGGSLRLSCAASGFIFGGNAMGWYRQAPGKERELVAAITARSGSTYYADSVKGRFTISRDNAKNTVYLQMNSLKPEDTAVYYCATPVYRSTYEYDYWGQGTQVTVSS	low polyreactivity
QVQLVESGGGLVQAGGSLRLISAASGSTIIRNAMGWYRQAPGKERELVAAISTSGGRTHYADSVKGRFTISRDNAKTTVYLQMNSLKPEDTAVYDCAASNGYQAVTYDYWGQGTQVTVSS	high polyreactivity
QVQLVESGGGLVQAGGSLRLSCAASGITFPRNAMGWYRQAPGKERELVAAISARGGNTYYADSVKGRFTISRDNSKNTVYLQMNSLKPEDTAVYYCNALGSSYSEPSEYDYWGQGTQVTVSS	low polyreactivity
QVQLVESGGGLVQAGGSLRLSCAASGSTFSNYALGWYSQAPGKERELVAAITSRGGRTYYADSVKGRFTISRDNAKNTVYLQMNSLKPEDTAVYYCAARVGSGRAIDLYYYWGQGTQVTVSS	low polyreactivity
QVQLVESGGGLVQAGGSLRLSCAASGFIFQYYAMGWFRQARGKERELVAAIRSGGSTYYADSVKGRFTISRDNAKNTFYLQLNSLKPEDTAVYFCGAKYRVFYGFDYWGQGTQVTVSS	high polyreactivity
QVQLVESGGGLVQAGGSLRLSCAASGRTFTYYAMGWYRQAPGKERELVAAITSGGRTYYADSVKGRFTISRDNAKNTVYLQMNSLKPEDTAVYYCAARRIRDYYRSYDYWGQGTQVTVSS	high polyreactivity

Sequence	polyreactivity (PSR sort gate)
QVQLVESGGGLVQAGGSLRLSCAASGRIFVYYTMGWYRQAPGKERELVAAITGSGGSTYYADSVKGRFTISRDNAKNTVYLQMNSLKPEDTAVYYCAARYASTGGGYKYYYWGQGTQVTVSS	high polyreactivity
QVQLVESGGGLVQAGGSLRLSCAASGITFVRYAMGWYRQATGKERELVAGISRGGSTNYADSVKGRFTISRDNAKNTVYLQMNSLKPEDTAVYYCNRVFTWRYGYRYEYWGQGTQVTVSS	high polyreactivity
QVQLVESGGGLVQAGGSLRLSCAASGRTFPYNAMGWYRQAPGKERELVAAITSSGGSTYYADSVKGRFTISRDNAKNTVYLQMNSLKPEDTAVYYFAKGYYSPNYYYWGQGTQVTVSS	high polyreactivity
QVQLVESGGGLVQAGGSLRLSCAASGFTFPWYAMGWYRQAPGKERELVAAISTSGDSTYYADSVKGRFTISRDNAKNTVYLQMNSLKPEDTAVYYCAARVVRGRYGYWGQGTQVTVSS	high polyreactivity
QVQLVESGGGIVQAGGSLSLSCAASGSTFYSYDMVWYRPAPGKERELVAAISWEGGRPYYADSVKGRFTISRDNAKNNVYLQMNSLKPEDTAVYYCADAYPTYRHYYWGQGTQVSVSS	low polyreactivity
QVQLVESGGVLVQAGASLRLSCAASVFTFRRYAMGWYRQAPGKERELVAAITRDDSTNYADSVKGRFTISRDNAKNTVYLQMNSLKPEDTAVYYCAARLWYPYYYWGQGTQVTVSS	high polyreactivity
HVQLVESGGGLVQAGGSLRLSCAASGFSFDPYAMGWYRQAPGKERELVAAISDGGSTNYPDSVKGRFTISRDNAKNTVYLQRNSLKPEDTAVYYCAVEYWYVRGTFDDWGQGTQVTVSS	low polyreactivity
QVQLGESGGGLVQAGGSLRLSCAASGRIFNVYAMGWYRQAPGKERELVAAISTGSPTYYADSVKGRFTISRDNAKNTVYLQMNSLKPEDTAVYYCATGYIHGDYWSFRHQYYYWGQGTQVTVSS	low polyreactivity
QDQLVESGGGVVQAGGSLRLSCDASGFIFYRYAMGWSRQAPGKERELLAAISRSGGSTYYADSVKRRFTISRDNAKYTVYLQLKSLKPEDTAVYYCATTGQRNLYLVNYSGQGTQVTVSS	low polyreactivity
QVQLVESGGGLVQAGGSLRLSCAASGFTFRGNAMGLYRQAPRKERELVATITYNAGSTYYADSVKGRFTISRDNAKNTVYLQMNSLKPEDTAVYYCAVELDSVPDYEPWTEYDYWGQGTQVTVSS	low polyreactivity
QVQLVESGGGLVQAGGSLRISCAASGFTFYYNAMGWYRQAPGKERELVASISSNGTSTYYADSVKGRFTISRDNAKNTVYLQMNSLKPEDTAVYYCNVDIFDPRTYDYWGQGTQVTVSS	low polyreactivity
QVQLVESGGGLVQAGGSLRLSCAASGSTVHYMGWYRQAHGKESELVAGISWSGGSTYYADSVKGRFTISRDNAKKTVYLQINSLKPEDTAVYYCAADIKIRLYTTGDYWGQGTQVTVSS	low polyreactivity
QVQLVESGGGLVQAGGSLRLSCAASGSTFYFNTMGWYRQAPGKERELVAAINSIGGSTYYADSVKGRFTISRDNAKNTVYLQMNSLKPEDTAVYYCAKLKRLYYWSSHTSYGYDYWGQGTQVTVSS	high polyreactivity
QVQLVESGGGLVQAGGSLRLSCAASGSTFSYYVMGWYRQAPGKERELVAAISGSGGSTYYSDSVKGRFTISRDNAKNTVYLQMNSLKPEDTAVYYCAANDGSEYDYWGQGTQVTVSS	high polyreactivity
QVQLVESGGGLVQAGGSLRLSCAASGFIFTPYAMGWYRQAPGKERELVAAIRNTGSTYYADSVKGRFTISRDNAKNTVYLQMNSLKPEDTAVYYCNARRYRWAVVKGGYWGQGTQVTVSS	high polyreactivity
QVQLVESGGGLVQAGGSLRLSCAASGSIFFYNTMGWYRQAPGKERELVARISRSGGSTYYADSVKGRFTISRDNAKNTVYLQMNSLKPEDTAVYYCAARSAPWRYRYYKPYYYWGQGTQVTVSS	high polyreactivity
QDQLVESGGGLVQAGGSLRLSCAASGSNFDRYTMGWYRQAPGKERELLAAITRRGGSTNYADSVKGRFTISRDNAKFTVYLQMISLKPEDTALYYCARATDLNDKPSWDEYWGQGTQVTVSS	high polyreactivity
QVQLVESGGGLVQAGGSLRLTCAASGSIFWGNAMGWYRQAPGKERELVATISWSAGSTYYADSVKGRFTISRDNAKNTVYLQMNSLKPEDTGVYYCATDFRHSTLYYYWGQRTQVTVSS	low polyreactivity
QVQLVESGGGLVQAGGSLRLSCAASGFIFYWYAMGWYRQAPWKEREFVAAISSSGGNTSYADSVKGRFTISRDNAKNTVYLQMNSLKPEVTAVYYCAATSRAFYRSLYYYWGQGTQVTVSS	low polyreactivity
QVQLVESGGGLVQAGGTLRLSCAASGSIFARYAMGCSIQAPGKERELVAAISGSGASTYYADSVKGRFTISRDNAKNTVYLQMNSLKPEDTAVYYCARPFLRRPTYRFETGYGYWGQGTQVTVSS	high polyreactivity
